This is an account of results in PMC4703834.

The experiment has as its target Δ4-DgkA (thermostable mutant of Escherichia coli diacylglycerol kinase) (Escherichia coli) (UniProt P0ABN1). Put plainly: crystal structure; in meso (lipid cubic phase) crystals of Δ4-DgkA in 9.9 MAG at 4 °C, soaked with zinc-ACP (ternary complex, 2.7 Å) or without nucleotide; synchrotron data at 100 K.

The substance “Δ4-DgkA (thermostable mutant of Escherichia coli diacylglycerol kinase) (from UniProt P0ABN1 2-122) (enzyme)” yielded a stoichiometry N of 3.

By stoichiometry N is commonly meant the number of molecules, sites or subunits per partner or assembly.
